US20230390337A1

Target: high-affinity non-cleavable CD16 (hnCD16) Fc receptor
Experiment: cell-based or functional assay

**Q.** For Rituximab (antibody), which % specific cytotoxicity at E:T=1:1 (ADCC against CD19 negative leukemia cells) (% specific cytotoxicity) is on record?
**A.** Its % specific cytotoxicity at E:T=1:1 (ADCC against CD19 negative leukemia cells) (% specific cytotoxicity) is 75.6.
